{
  "source": "paper PMC5158082",
  "about": "(PLoS Pathogens, 2016)",
  "key": {"[1]": {"molecular_target": "the molecule itself", "experiment": "native MS"}, "[2]": {"molecular_target": "T1, SpaR^STREP (Salmonella enterica serovar Typhimurium, UniProt P40701 1-263)", "T1 construct": "also called SpaR^STREP of the SpaPR^STREP complex", "T1 sequence": "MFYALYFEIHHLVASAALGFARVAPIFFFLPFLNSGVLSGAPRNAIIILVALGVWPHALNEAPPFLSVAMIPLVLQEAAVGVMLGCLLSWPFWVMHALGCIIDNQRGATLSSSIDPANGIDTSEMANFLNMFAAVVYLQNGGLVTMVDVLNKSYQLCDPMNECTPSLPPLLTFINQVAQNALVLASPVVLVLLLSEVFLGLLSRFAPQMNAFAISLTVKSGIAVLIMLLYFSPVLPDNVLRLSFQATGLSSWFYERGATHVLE", "experiment": "native MS", "conditions": "both partners purified"}},
  "data": [
    {"binder": "SpaP (untagged, co-expressed in E. coli) (natural protein, also called SpaP of the SpaPR complex; SpaP5R1) MGNDISLIALLAFSTLLPFIIASGTCFVKFSIVFVMVRNALGLQQIPSNMTLNGVALLLSMFVMWPIMHDAYVYFEDEDVTFNDISSLSKHVDEGLDGYRDYLIKYSDRELVQFFENAQLKRQYGEETETVKRDKDEIEKPSIFALLPAYALSEIKSAFKIGFYLYLPFVVVDLVVSSVLLALGMMMMSPVTISTPIKLVLFVALDGWTLLSKGLILQYMDIAT", "values": [
      {"measurement": "stoichiometry N", "setting": "[1]", "value": 5},
      {"measurement": "stoichiometry N", "setting": "[2]", "value": 5, "unit": "SpaP per SpaR^STREP"}
    ]}
  ]
}
